Results on 4 molecules are retold here after publication PMC5861452.

The data set concerns the target NS5A domain 1+ (WT) (Hepatitis C virus (replicon plasmid …, UniProt Q9WMX2 2005-2221)). The data set can be described thus: fluorescence polarization. (In fluorescence polarisation assays a small probe gives low polarisation when free and higher when bound to something large.)

NS5A domain 1+ (WT) (Hepatitis C virus, sequence (Q9WMX2 2005-2221): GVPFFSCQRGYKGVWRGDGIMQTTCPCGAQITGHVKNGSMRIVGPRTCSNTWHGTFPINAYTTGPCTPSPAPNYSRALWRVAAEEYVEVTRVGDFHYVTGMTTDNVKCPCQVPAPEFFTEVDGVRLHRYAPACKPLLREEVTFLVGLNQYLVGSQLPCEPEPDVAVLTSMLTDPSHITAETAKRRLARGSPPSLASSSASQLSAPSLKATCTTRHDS

B1: RNA 6 (A15) (ssRNA)
RNA: AAAAAAAAAAAAAAA
On to B1, for which the Kd worked out at 1000 ± 150 nM.

B2: RNA 2 (consensus derived) (ssRNA)
RNA: GGGUGGGGGUGG
B2 gave a Kd of 20 ± 2.7 nM.

B3: RNA 1 (consensus sequence 1) (ssRNA)
RNA: GGCUGAGGCAGG
For the molecule B3, the Kd is 10 ± 1.5 nM.

B4: RNA 3 (minimal GRE) (ssRNA)
RNA: UGUUUGUUUGUCCC
In the case of B4, the Kd worked out at 100 ± 10 nM.

Broadly, the Kd is the constant that tells how readily two partners part at equilibrium. Read a low Kd as a tighter complex.
